The assay deals with Mcm6-SuOn (budding yeast) (UniProt Q02724). The experiment in a line: co-IP.

For the substance “Glc7 phosphatase (PP1) (from UniProt P32598 1-312) (enzyme)”, the fold enrichment of Glc7 in the immunoprecipitate against Mcm6-ctrl came to 2 fold.

Source of the values: paper PMC4823995.
